US20140004106A1

Experiments:
[1] = target: 28mer peptide of the CXCR5 antigen; test: Ag-ELISA; DS in PBS, 5°C, 3 months
[2] = target: 28mer peptide of the CXCR5 antigen; test: Antigen-ELISA; TRIS 10 mM pH 7.5, T0
[3] = target: 28mer peptide of the CXCR5 antigen; test: Antigen-ELISA; TRIS 10 mM pH 8.5, T0
[4] = target: 28mer peptide of the CXCR5 antigen; test: Antigen-ELISA; Arginine 10 mM pH 6, T0
[5] = target: 28mer peptide of the CXCR5 antigen; test: Antigen-ELISA; Acetate 10 mM pH 5.00, T0
[6] = target: 28mer peptide of the CXCR5 antigen; test: Antigen-ELISA; Histidine 10 mM pH 5.5, T0
[7] = target: 28mer peptide of the CXCR5 antigen; test: Antigen-ELISA; PBS 155 mM, light stress, 24 h
[8] = target: 28mer peptide of the CXCR5 antigen; test: Antigen-ELISA; standard run with LA_09_28A, T0
[9] = target: 28mer peptide of the CXCR5 antigen; test: Antigen-ELISA; standard run with LA_09_29B, T0
[10] = target: 28mer peptide of the CXCR5 antigen; test: Potency (Antigen ELISA); stored +25°C, initial
[11] = target: 28mer peptide of the CXCR5 antigen; test: Potency (Antigen ELISA); stored -20°C, 6 months
[12] = target: 28mer peptide of the CXCR5 antigen; test: Potency (Antigen ELISA); stored -20°C, 9 months
[13] = target: 28mer peptide of the CXCR5 antigen; test: Potency (Antigen ELISA); stored +5°C, 12 months
[14] = target: 28mer peptide of the CXCR5 antigen; test: Potency (Antigen ELISA); stored +25°C, 6 months
[15] = target: 28mer peptide of the CXCR5 antigen; test: Potency (Antigen ELISA); stored -20°C, 12 months
[16] = target: 28mer peptide of the CXCR5 antigen; test: Antigen-ELISA; TRIS 10 mM pH 7.5, after 1 week at +40°C
[17] = target: 28mer peptide of the CXCR5 antigen; test: Antigen-ELISA; PBS 155 mM pH 6.50, after 1 week at +40°C
[18] = target: 28mer peptide of the CXCR5 antigen; test: Antigen-ELISA; PBS 155 mM, clear glass type I, 24 h +40°C
[19] = target: 28mer peptide of the CXCR5 antigen; test: Antigen-ELISA; PBS 155 mM, amber glass type II, 24 h +40°C
[20] = target: 28mer peptide of the CXCR5 antigen; test: Antigen-ELISA; Acetate 10 mM pH 5.00, after 1 week at +40°C
[21] = target: 28mer peptide of the CXCR5 antigen; test: ELISA potency (binding); 100 mg/mL, Lysine (30) + NaCl (2), T zero
[22] = target: 28mer peptide of the CXCR5 antigen; test: ELISA potency (binding); 100 mg/mL, Glycine (20) + NaCl (2), T zero
[23] = target: 28mer peptide of the CXCR5 antigen; test: Antigen-ELISA; PB 5 mM pH 6.50, after mechanical stress 350 rpm 2.5 h
[24] = target: 28mer peptide of the CXCR5 antigen; test: Antigen-ELISA; PB 10 mM pH 7.00, after mechanical stress 350 rpm 2.5 h
[25] = target: 28mer peptide of the CXCR5 antigen; test: Antigen-ELISA; PBS 155 mM pH 6.50, after mechanical stress 350 rpm 2.5 h
[26] = target: 28mer peptide of the CXCR5 antigen; test: Antigen-ELISA; Citrate 10 mM pH 6.00, after mechanical stress 350 rpm 2.5 h
[27] = target: 28mer peptide of the CXCR5 antigen; test: ELISA potency (binding); 100 mg/mL, Sucrose (60) + Mannitol (15), 7 days at 40°C

B1: Lead CXCR5 Antibody (humanized IgG4 anti-CXCR5 antibody) (antibody, V domains shown)
VH: QVQLKESGPGLVAPSESLSITCTVSGFSLIDYGVNWIRQPPGKGLEWLGVIWGDGTTYYNPSLKSRLSISKDNSKSQVFLKVTSLTTDDTAMYYCARIVYWGQGTLVTVSA
VL: DIVMTQAAPSVAVTPGASVSISCRSSKSLLHSSGKTYLYWFLQRPGQSPQLLIYRLSSLASGVPDRFSGSGSGTAFTLRISRVEAEDVGVYYCMQHLEYPYTFGGGTKLEIKR
An EC50 % [1] of 112%, an EC50 % [2] of 104% and an EC50 % [3] of 118% were found for B1 in this work. It also gave an EC50 % [4] of 114%, an EC50 % [5] of 147% and an EC50 % [6] of 57%. It also gave an EC50 % [7] of 72.3%, an EC50 % [8] of 100% and an EC50 % [9] of 100%. For the same binder, the EC50 value (in comparison to reference) [10] was 75%, the EC50 value (in comparison to reference) [11] was 96% and the EC50 value (in comparison to reference) [12] was 101%. For the same binder, the EC50 value (in comparison to reference) [13] was 93%, the EC50 value (in comparison to reference) [14] was 104% and the EC50 value (in comparison to reference) [15] was 96%. The EC50 % [16] was 184%, the EC50 % [17] was 115% and the EC50 % [18] was 131%. The EC50 % [19] was 90.1%, the EC50 % [20] was 102% and the rel. potency [%] [21] was 130%. For the same binder, the rel. potency [%] [22] was 174%, the EC50 % [23] was 150% and the EC50 % [24] was 61.4%. The EC50 % [25] was 79.3%, the EC50 % [26] was 136% and the rel. potency [%] [27] was 243%.
